# Test results published in the supplement of paper PMC12042874.
# ± gives the uncertainty stated by the source.
# Assay: amyloid nucleation score (Sup35N fusion, yeast selection) (log enrichment); library NNK3; higher = more nucleation; inactive = no reads after selection
# In short: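 Peptides of 20 random codons, each fused to Sup35N, were expressed in psi-negative yeast. Cells were induced with 100 μM copper sulfate for 24 hours and grown 7 days at 30°C on medium lacking adenine and uracil, and plasmid inserts before and after selection were Illumina-sequenced. Nucleation scores are DiMSum log enrichments of output over input reads, centred on the mode score of non-aggregating sequences, and sequences under 100 input reads were excluded.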
row,Substance,amyloid nucleation score
1,SCNFGANYNLKMIFIYVPWV,1.75 ± 0.08
2,LSSYMDYGMSKVYVLWRSTW,-0.117 ± 0.28
3,KSFLLPCFCRTLWTWMHRHA,1.11 ± 0.14
4,AKWSGFYYVLMYFFMLHLRY,inactive
5,CELVAQFPKFFAFYIFYDDT,inactive
6,GYGCVTKV,inactive
7,LMFGVIMPITDDMFYGQESV,inactive
8,SSHVQRMMRLMVAN,inactive
9,TATWSFNVT,inactive
10,ACSYVGTKMLPGANLRDKPW,-0.387 ± 1.5
11,FHTFSVCVGRGTMYYRALEE,0.277 ± 0.23
12,NSVHREECFLITF,inactive
13,CHWNYTKIRHFYEVVGDQTG,inactive
14,DFYRSEQGDWSNLHSC,inactive
15,QKEDFIVSLWYRVRLFDRNS,inactive
16,MYFYYYGSRYYNNSDCLLSS,inactive
17,TDYMLVWSQYRLIHFCNLVV,inactive
18,RLLNVLKRYLMVSLQKAGSD,inactive
19,RNLSKIRMPMVVNNTEY,inactive
20,AQRGIYWTTKVD,inactive
21,NLVACIVNTCYL,1.52 ± 0.14
22,SMVFLASLY,inactive
23,DWRQVYAYENSLWTVFSVWD,inactive
24,SMCNTSLYWLDHGADLLRSL,inactive
25,WDTILDLGGNDVEGSFPVTE,inactive

row,Substance,amyloid nucleation score
1,TVTWDWNRSEEGRCYLLLWV,inactive
2,LAAMWPFV,inactive
3,LFDRTLL,inactive
4,VPPFTLTSVVYLSFCVCGGD,0.701 ± 0.13
5,LQNLNGLIVKSCL,inactive
6,CFKSIITMNFYINWYFVSSP,inactive
7,MSGEFVV,inactive
8,VCVSVRDTCGLCLLVYDNTV,2.11 ± 0.079
9,TSVTSTSLSGSLSAV,inactive
10,ICGRTYVRVT,-0.775 ± 1.1
11,GRIEKVVRNA,inactive
12,YGCFVPY,inactive
13,LFFLRRNCHTDVSSLEYDNA,inactive
14,TTPYWRRECRWSEFGFA,inactive
15,TNYNHCKCEIGLGHILARFT,inactive
16,FYSLIMHLKRLSYVA,inactive
17,TLRVYAMVLTWAPKLSFWRS,inactive
18,NLPNGMFKIHVDG,inactive
19,TNRMDKYCCV,inactive
20,LHMIVALSSSSSMTYDVRVV,inactive
21,GLAVNNRPDCEVSSLNRLLM,inactive
22,GSCRGVRWASRE,inactive
23,KDGFYNVPLVEPHMRSSSTP,inactive
24,RDQEHSRTFISM,inactive
25,KPLMWESSDNPEGWQLSLLG,-0.79 ± 1.4

row,Substance,amyloid nucleation score
1,SHMEWFT,1.92 ± 0.088
2,PYLLAVNRGESSSSVWLMPM,inactive
3,FYGLYFYHSVH,inactive
4,WTMVSGDALTCYTMTTMVRR,inactive
5,VVAIWLLGAINMLITTIYSS,inactive
6,NNRCNKFPGYTL,inactive
7,MLFRLRSAYHTASDVDANDD,inactive
8,SMYRYAKETT,inactive
9,HAGNWPSGSGRMSATRRFGW,inactive
10,RHVQG,inactive
11,SSDECYSNHCIWCVKQ,3.16 ± 0.061
12,FKRLLARV,-0.362 ± 0.98
13,VRSNVKDRFT,inactive
14,SFFFHSKSSGKTLNWSSDKA,0.956 ± 0.091
15,LYSLVV,inactive
16,LFFLTCRCVRNAYHRYMVCI,inactive
17,TCTCKVRLYCTMARSPFIMG,inactive
18,SGFDYV,inactive
19,TTEFKIDR,inactive
20,DQEVC,inactive
21,PRIRD,inactive
22,LYVVVASMVGLDASRP,0.266 ± 0.38
23,LCSHLEVDSL,inactive
24,VHSGQLVTMGMYKLLLSSLC,inactive
25,FYSFCQSKSLMTFSGDLPPS,inactive

row,Substance,amyloid nucleation score
1,ACRYDLSKKPNASWARAEG,-0.272 ± 0.37
2,LFLRPNANRYVH,inactive
3,INNASRRPCNMHVDVYRLLR,inactive
4,RGAGSTESLTNGRGSIAIHR,inactive
5,NLIFRFPLAIKWSLFSLDCL,inactive
6,FSILAFMSDLLS,inactive
7,FFILFMRRLDW,0.323 ± 0.22
8,FYMAKRICKVQHGVNGPYAK,inactive
9,RRYHHFRRECWLVERRIVVF,inactive
10,NFPGLTASMIKCGGNQCYVG,inactive
11,VYVGVLVFITWYLSSLYNWA,inactive
12,NFFAACNMMVLPFSMDFCSR,2.77 ± 0.071
13,TIYCWTQNIHDY,2.3 ± 0.086
14,GCGVC,-0.609 ± 0.98
15,FCMGLHSWNSNGRFCAVCTY,inactive
16,GRVMVWIFIFMMGGMQANLS,inactive
17,YAKCSDVY,inactive
18,EAKMMRDLSVLVGMPYIMTN,inactive
19,EIMGICTLTVIFCKC,1.58 ± 0.1
20,FFSISFS,inactive
21,QPPHKARGACYIRVFYRCTG,0.226 ± 0.68
22,MTPTMDENSFLDSSISQMLW,inactive
23,DLIGYSEEV,0.449 ± 0.19
24,FSALMIY,0.015 ± 0.32
25,NRVPQWRRRQVGGD,inactive

row,Substance,amyloid nucleation score
1,VVSLESSAVVNGWLWVLAGA,inactive
2,TCDIRCCTASPLYNRVM,0.129 ± 0.47
3,WCGRETSRQWA,0.033 ± 0.39
4,LRYASTSSFLVFQRDTLANE,inactive
5,FTGAMAFFLWFIQDYWFTGW,inactive
6,ASLRLLVLVNSMWVGFFFNS,inactive
7,WSMSSVTYNSVCSCGSWCE,1.87 ± 0.091
8,KCSTMGWRWYMSS,-0.106 ± 0.93
9,DNQFICLFVVEIGIVYDSYA,inactive
10,WRQVL,inactive
11,PFGGMVLLILNDAFSMVYVS,inactive
12,KYHLGECVLSPLAPKIHWEI,inactive
13,VVGNSCVYPVGPRFAE,-0.454 ± 0.9
14,DCFLLSTIVALYRDYRYIGT,inactive
15,QYTCDDSCILFCCASWAEWS,2.34 ± 0.081
16,ANTGMWLRMFPCWAPWDRVE,inactive
17,NLNSFSGAFVLIWGATVHFC,1.96 ± 0.075
18,YTRSCSMRLF,inactive
19,VTLLPVSVCINAFNLILGPF,3.08 ± 0.065
20,LLLCS,0.402 ± 0.18
21,CFMTS,inactive
